The target of experiment [1] is T1, human BSG2 (basigin isoform 2) on the cell surface (human, UniProt P35613 140-385).
T1 sequence: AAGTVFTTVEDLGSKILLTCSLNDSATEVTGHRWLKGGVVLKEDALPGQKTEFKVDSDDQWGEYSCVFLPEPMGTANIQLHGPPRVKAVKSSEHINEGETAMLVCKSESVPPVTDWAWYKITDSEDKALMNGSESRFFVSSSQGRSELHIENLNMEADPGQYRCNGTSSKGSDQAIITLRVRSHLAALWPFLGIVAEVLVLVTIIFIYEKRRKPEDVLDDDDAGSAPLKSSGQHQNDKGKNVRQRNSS
Briefly: cell-based or functional assay.

Experiment [2] concerns the target T1, human BSG2 (basigin isoform 2) on the …. In words: cell-based or functional assay. The source holds these as a separate data set.
For experiment [3] the target is unchanged. In words: cell-based ECL (MSD) binding on cells expressing human BSG2. Here is the method:
Cells were plated at 25,000 cells/well in 25 μl PBS using 96 well MSD high binding plates (MSD, catalogue no. L11XB-3), and incubated at 37° C. for 1 hour. 25 μl/well of blocking solution (30% serum in PBS) was added to the plates for 30 minutes at room temperature with mild agitation. Plates were then incubated with 25 μl/well of BSG2 antibodies (10 μg/ml) diluted in assay buffer (10% serum in PBS) for 1 hour at room temperature with mild agitation, and then washed 3× with PBS. Goat anti-mouse or anti-human IgG sulfotag was added at 1 μg/ml for 1 hour with mild agitation, and plates were washed 3× with PBS. After the final wash, plates were incubated with 2×MSD surfactant-free read buffer (catalogue no. R92TD-2) and the signal was detected on a MSD SECTOR Imager 6000. Data were analyzed using Graphpad Prism software and EC₅₀ values were reported.
Select humanized variants were also tested for their functionality using ADCC and cell viability assays (described in Examples 1.6 and 1.7).

Experiment [4] has the same target. In words: receptor binding assay, Eu-labeled antibody on cells expressing human BSG2. Here is the method: Cell lines expressing BSG2 were harvested and washed once in assay buffer (PBS, 0.1% BSA, 0.02% Na Azide, 10 mM EDTA) and resuspended to 5×10⁶ cells per mL. Serial 1:2 dilutions of ⁺³Eu-labeled anti-BSG2 antibody stock in assay buffer were made for final concentrations ranging from 1.6×10⁻⁸-7.7×10⁻¹² M, and a 4 mg/mL solution of unlabeled anti-BSG2 antibody was also prepared. To 96 well round bottom plates, 25 μl of ⁺³Eu-labeled antibody dilutions were added to 25 μl buffer (total counts), or 25 μl of unlabeled antibody were added to 25 μl buffer (background counts). 50 μl of cells at 2.5×10⁵ cells per well were then added to all samples, mixed gently, and incubated on ice for 1 hour. Cell bound antibody was then separated from unbound antibody by transferring 20 μL of the reaction mixture to Acrowell 96 well filter plates (Pall PN 5020), centrifuged for 5 min (2200 rpm), washed 3× with 150 μL cold assay buffer, and centrifuged for 5 min. Signal was determined by incubating samples with 150 μL/well of enhancement buffer and read using Envision. The specific counts were determined by subtracting the background counts (cells+labeled antibody+excess cold antibody) from the corresponding total counts (cells+labeled antibody) for each antibody concentration. The labeled antibody concentration versus total counts was analyzed using Graphpad Prism 4 to calculate Kd and Bmax values.

A value given as a limit tells only on which side of the number the result lay.

B1: chimeric antibody 6A11-3A3 (human IgG1 constant regions) (antibody, V domains shown)
VH: EVKLEESGGGLVQPGGSMKLSCVASGFTFSNFWMDWVRQSPEKGLEWIAGIRLKSYNYATHYAESVKGRFTISRDDSKSSVYLQMNNLRAEDTGIYYCTDWDGAYWGQGTLVTVSA
VL: DIVMTQSHKFMSTSVGDRVSITCKASQDVSTDVAWYQQKPGQSPKLLIYSASYRYTGVPDRFTGSGSGTDFTFTISSVQAEDLAVYYCQQHYSTPFTFGSGTKLEIK
Turning to B1, in experiment [1], the “ADCC assay (EC50 ng/ml of % specific lysis), HepG2 hepatocellular cancer cells” value amounted to 7.3 ng/mL. In experiment [2], the “ADCC assay (EC50 ng/ml of % specific lysis), HepG2 hepatocellular” value is 12.5 ng/mL and the “Cross-linking assay (% viability, Cmax: 125 ng/ml), MiaPaCa pancreatic cells” value is 55.5 % viability.

B2: mouse anti-human BSG2 antibody 1F4-2C1 with mouse IgG2a isotype (antibody, V domains shown)
VH: EVKLEESGGGLVQPGGSMKLSCVASGFTFSNFWMDWVRQSPEKGLEWVAEIRLKSTNYATHYAESVKGRFTISRDDSKSSVYLQMNNLRAEDTGIYYCTATSTGYWGQGTTLTVSS
VL: SIVMTQSPKILLVSAGDRVTITCKASQSVSNDVAWYQQKPGQSPKLLIYYASNRYTGVPDRFTGSGYGTDFTFTISTVQAEDLAVYFCQQDYSSPYTFGGGTKLEIK
On to B2, for which the “CDC assay (% killing at 10 µg/ml Ab), MiaPaCa-2 pancreatic cancer cells” value in experiment [1] stood at 87 % killing.

B3: humanized 6A11-3A3 antibody h3A3-8 (VH.1/VL.1a) (antibody, V domains shown)
VH: EVQLVESGGGLVQPGGSLRLSCAASGFTFSNFWMDWVRQAPGKGLEWVGGIRLKSYNYATHYAESVKGRFTISRDDSKNTAYLQMNSLRAEDTAVYYCTRWDGAYWGQGTLVTVSS
VL: DIQMTQSPSSLSASVGDRVTITCKASQDVSTDVAWYQQKPGKSPKLLIYSASYRYTGVPSRFSGSGSGTDFTLTISSLQPEDIATYYCQQHYSTPFTFGQGTKLEIK
The molecule B3 displayed an EC50 in experiment [3] of 6.9 nM.

B4: humanized 6A11-3A3 antibody h3A3-5 (VH.1/VL.1) (antibody, V domains shown)
VH: EVQLVESGGGLVQPGGSLRLSCAASGFTFSNFWMDWVRQAPGKGLEWVGGIRLKSYNYATHYAESVKGRFTISRDDSKNTAYLQMNSLRAEDTAVYYCTRWDGAYWGQGTLVTVSS
VL: DIQMTQSPSSLSASVGDRVTITCKASQDVSTDVAWYQQKPGKAPKLLIYSASYRYTGVPSRFSGSGSGTDFTLTISSLQPEDIATYYCQQHYSTPFTFGQGTKLEIK
On to B4, for which the concentration for a half-maximal effect (EC50) in experiment [3] was over 100 nM.

B5: humanized 6A11-3A3 antibody h3A3-11 (VH.1/VL.1b) (antibody, V domains shown)
VH: EVQLVESGGGLVQPGGSLRLSCAASGFTFSNFWMDWVRQAPGKGLEWVGGIRLKSYNYATHYAESVKGRFTISRDDSKNTAYLQMNSLRAEDTAVYYCTRWDGAYWGQGTLVTVSS
VL: DIVMTQSPSSLSASVGDRVTITCKASQDVSTDVAWYQQKPGKSPKLLIYSASYRYTGVPSRFSGSGSGTDFTLTISSLQPEDIATYYCQQHYSTPFTFGQGTKLEIK
In turn, B5 displayed a half-maximal effective concentration (EC50) in experiment [3] of over 100 nM.

B6: humanized 6A11-3A3 antibody h3A3-12 (VH.1a/VL.1b) (antibody, IgG1, V domains shown)
VH: EVQLVESGGGLVQPGGSLRLSCAASGFTFSNFWMDWVRQAPGKGLEWIAGIRLKSYNYATHYAESVKGRFTISRDDSKSTVYLQMNSLRAEDTAVYYCTDWDGAYWGQGTLVTVSS
VL: DIVMTQSPSSLSASVGDRVTITCKASQDVSTDVAWYQQKPGKSPKLLIYSASYRYTGVPSRFSGSGSGTDFTLTISSLQPEDIATYYCQQHYSTPFTFGQGTKLEIK
notes: IgG1
Consider B6, for which, in experiment [2], the “ADCC assay (EC50 ng/ml of % specific lysis), HepG2 hepatocellular” value was determined as 9.3 ng/mL and the “Cross-linking assay (% viability, Cmax: 125 ng/ml), MiaPaCa pancreatic cells” value is 48.8 % viability. Moreover, in experiment [3], it took 0.96 nM to reach a half-maximal effect (EC50). The molecule also showed a Kd in experiment [4] of 2.3 nM.

B7: humanized 6A11-3A3 antibody h3A3-6 (VH.1a/VL.1) (antibody, IgG1, V domains shown)
VH: EVQLVESGGGLVQPGGSLRLSCAASGFTFSNFWMDWVRQAPGKGLEWIAGIRLKSYNYATHYAESVKGRFTISRDDSKSTVYLQMNSLRAEDTAVYYCTDWDGAYWGQGTLVTVSS
VL: DIQMTQSPSSLSASVGDRVTITCKASQDVSTDVAWYQQKPGKAPKLLIYSASYRYTGVPSRFSGSGSGTDFTLTISSLQPEDIATYYCQQHYSTPFTFGQGTKLEIK
notes: IgG1
For B7, in experiment [2], the “ADCC assay (EC50 ng/ml of % specific lysis), HepG2 hepatocellular” value was determined as 16.4 ng/mL and the “Cross-linking assay (% viability, Cmax: 125 ng/ml), MiaPaCa pancreatic cells” value was 47.9 % viability. The EC50 in experiment [3] was 2.05 nM. The molecule further came in with a dissociation constant Kd in experiment [4] of 5.2 nM.

B8: humanized 6A11-3A3 antibody h3A3-9 (VH.1a/VL.1a) (antibody, V domains shown)
VH: EVQLVESGGGLVQPGGSLRLSCAASGFTFSNFWMDWVRQAPGKGLEWIAGIRLKSYNYATHYAESVKGRFTISRDDSKSTVYLQMNSLRAEDTAVYYCTDWDGAYWGQGTLVTVSS
VL: DIQMTQSPSSLSASVGDRVTITCKASQDVSTDVAWYQQKPGKSPKLLIYSASYRYTGVPSRFSGSGSGTDFTLTISSLQPEDIATYYCQQHYSTPFTFGQGTKLEIK
In experiment [3], B8 came in with a concentration giving a half-maximal response (EC50) of 1.35 nM. That is a single-digit nanomolar value.

Source of the values: US20110223176A1 (AbbVie / Abbott, published 2011).
